Data set [1] has as its system CHO-S cells. The data set can be described thus: Western blot analysis of PH20 expression in media and cells after transient expression. Type of data set: cell-based, Chinese Hamster. The following applies: media versus cells. Put shortly:
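CHO-S cells were transiently transfected with mutant PH20-HZ24 plasmids using GeneJuice and expressed for 48-72 h at 37 °C, 5% CO2. Media and cells were harvested separately, with PI-PLC treatment used to release GPI-anchored protein. Non-reduced samples were blotted with rabbit anti-PH20 (0.5 μg/mL), and a band near 66 kDa was scored as PH20.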
In general terms: A western blot detects proteins with antibodies after separation by electrophoresis.

In data set [2] the test system is CHO-S cells. Description: PI-PLC treatment of expressing cells, Western blot of media and cells. The conditions noted are these: cells incubated with PI-PLC for 2 hours. It counts as cell-based, Chinese Hamster. Put shortly:
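CHO-S cells transiently expressing rHuPH20 or C-terminal truncation mutants were treated with PI-PLC (0.5 units/well, or 3.0 units/dish in serum/detergent-free medium) for 2 h at 37 °C after 48–72 h expression. Untreated and treated media and cell extracts were analysed separately by Western blot for PH20.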

Data set [3] in a line: Microtiter hyaluronidase activity assay with biotinylated-hyaluronic acid. Type of data set: biochemical. The conditions noted are these: 72 hour post transfection supernatant.
The nature of data set [4]: Triton X-114 partition assay. Type of data set: physicochemical. The following applies: partition into aqueous phase of Triton X-114 at 37° C. As for the experimental part:
Solubility of a hyaluronidase can be determined by any method known to one of the skill in the art. One method for determining solubility is by detergent partitioning. […] For example, the solubility of the PH20 polypeptides described herein is assessed as described in Example 4. Membrane-anchored hyaluronidases, such as lipid-anchored hyaluronidases, including GPI-anchored hyaluronidases, will partition into the detergent-rich phase, but will partition into the detergent-poor or aqueous phase following treatment with Phospholipase C. Phospholipase C is an enzyme that cleaves the […] found in GPI-anchored proteins. Treatment with PLC will cause release of GPI-linked proteins from the outer cell membrane.
The samples were heated to 37° C. for 3 minutes to induce phase separation and centrifuged for 3 min at 4000 g at room temperature. Aqueous and detergent phases were removed for SDS-PAGE analysis and Western blotting. Rabbit anti-PH20 IgG (0.5 μg/mL) was used as the primary antibody and HRP-conjugated goat anti-Rabbit IgG (0.1 ng/mL, Cat#DC03L, EMD) was used as the secondary antibody. Full length human PH20, which partitions strongly into the detergent phase, was used as a control.

Data set [5] is described as follows: Hyaluronidase activity of N-glycan site specific deglycosylation mutants (biotinylated-HA assay). Type of data set: biochemical. The following applies: media of transfected CHO-S cells. Here is the method:
(§1) In short, a 4×BH 96-well plate was coated with biotinylated-HA (1.1 MDa). The 72 hour post transfection supernatant from cells transfected with human PH20 hyaluronidase carboxy-terminus deletion mutants was diluted in buffer at either pH 7.4 or pH 5.5 and added to individual wells of the plate and allowed to incubate at 37° C. for 90 minutes. The reaction was terminated by addition of 4M guanidine HCl. The wells were washed 4× with Phosphate Buffered Saline with Tween20 (PBST) to remove any digested biotinylated-HA followed by addition of streptavidin-HRP for 1 hour at room temperature. The wells were washed 4× with PBST and the plate was developed with TMB. The plate was read at 450 nm using an ELISA plate reader. Hyaluronidase activity (in Units/mL) was determined by interpolating the measured absorbance at 450 nm with a hyaluronidase reference standard curve. Full length mature human PH20 hyaluronidase and untransfected CHO cells were used as positive and negative controls.
PH20sHis (SEQ ID NO:210) was used as a template for mutagenesis of each asparagine residue to alanine using QuikChange® Site-Directed Mutagenesis Kit (Cat No. 200518, Stratagene). […] Six single mutants were generated, one for each of the N-glycosylation sites. Additionally, three double mutants and a triple mutant were generated for asparagines N82, N166 and N254, all of which are occupied by complex type glycans. Finally, a double mutant N368A/N393A was generated, lacking high mannose glycans. The mutants were transfected into CHO—S cells and expression was performed as described in Example 2A. Secretion into the media and hyaluronidase activity were determined as described in Examples 3 and 5, above.

A short description of data set [6]: bHA enzymatic assay of PH20 transiently expressed in lectin resistant CHO mutants. Type of data set: biochemical. The conditions noted are these: pH5.5; for PH20 Activity (1:27): 1:27 dilution; for PH20 Activity (1:81): 1:81 dilution. Here is the method: as §1
The resulting cell culture media was analyzed by Western blot analysis and hyaluronidase activity was measured using the biotinylated HA enzymatic assay (as described in Examples 3 and 5 above).

B1: SPAM1-PSTL: C-terminally truncated human PH20, precursor 489 aa (SEQ ID NO:12), mature 454 aa (SEQ ID NO:64) (protein, listed as Homo sapiens)
chain 1: MGVLKFKHIFFRSFVKSSGVSQIVFTFLLIPCCLTLNFRAPPVIPNVPFLWAWNAPSEFCLGKFDEPLDMSLFSFIGSPRINATGQGVTIFYVDRLGYYPYIDSITGVTVNGGIPQKISLQDHLDKAKKDITFYMPVDNLGMAVIDWEEWRPTWARNWKPKDVYKNRSIELVQQQNVQLSLTEATEKAKQEFEKAGKDFLVETIKLGKLLRPNHLWGYYLFPDCYNHHYKKPGYNGSCFNVEIKRNDDLSWLWNESTALYPSIYLNTQQSPVAATLYVRNRVREAIRVSKIPDAKSPLPVFAYTRIVFTDQVLKFLSQDELVYTFGETVALGASGIVIWGTLSIMRSMKSCLLLDNYMETILNPYIINVTLAAKMCSQVLCQEQGVCIRKNWNSSDYLHLNPDNFAIQLEKGGKFTVRGKPTLEDLEQFSEKFYCSCYSTLSCKEKADVKDTDAVDVCIADGVCIDAFLKPPMETEEPQIFYNASPSTL
chain 2: LNFRAPPVIPNVPFLWAWNAPSEFCLGKFDEPLDMSLFSFIGSPRINATGQGVTIFYVDRLGYYPYIDSITGVTVNGGIPQKISLQDHLDKAKKDITFYMPVDNLGMAVIDWEEWRPTWARNWKPKDVYKNRSIELVQQQNVQLSLTEATEKAKQEFEKAGKDFLVETIKLGKLLRPNHLWGYYLFPDCYNHHYKKPGYNGSCFNVEIKRNDDLSWLWNESTALYPSIYLNTQQSPVAATLYVRNRVREAIRVSKIPDAKSPLPVFAYTRIVFTDQVLKFLSQDELVYTFGETVALGASGIVIWGTLSIMRSMKSCLLLDNYMETILNPYIINVTLAAKMCSQVLCQEQGVCIRKNWNSSDYLHLNPDNFAIQLEKGGKFTVRGKPTLEDLEQFSEKFYCSCYSTLSCKEKADVKDTDAVDVCIADGVCIDAFLKPPMETEEPQIFYNASPSTL
modifications: HuPH20 precursor 1-489; mature HuPH20 36-489
In the case of B1, in the data set with CHO-S cells [1], the “Expressed in Media” value is recorded as “YES”. Moreover, in the data set with CHO-S cells [2], the “Expressed in Media Following Addition of PI-PLC” value is “Initially in media”. Further, in data set [3] (Table 6), the “pH 5.5 Activity” value turned out to be 1.089 Units/ml and the “pH 7.4 Activity” value is reported as 1.557 Units/ml. Besides, in data set [3] (Table 6A), the “pH 5.5 Activity” value amounted to 3.321 Units/ml and the “pH 7.4 Activity” value amounted to 1.985 Units/ml. Moreover, in data set [4], the Soluble entry is listed as “YES”.

B2: HZ24-PH20sHis: his-tagged PH20 (SEQ ID NO:187), human PH20 clone with HexaHis tag after amino acid S490 (protein)
chain: MGVLKFKHIFFRSFVKSSGVSQIVFTFLLIPCCLTLNFRAPPVIPNVPFLWAWNAPSEFCLGKFDEPLDMSLFSFIGSPRINATGQGVTIFYVDRLGYYPYIDSITGVTVNGGIPQKISLQDHLDKAKKDITFYMPVDNLGMAVIDWEEWRPTWARNWKPKDVYKNRSIELVQQQNVQLSLTEATEKAKQEFEKAGKDFLVETIKLGKLLRPNHLWGYYLFPDCYNHHYKKPGYNGSCFNVEIKRNDDLSWLWNESTALYPSIYLNTQQSPVAATLYVRNRVREAIRVSKIPDAKSPLPVFAYTRIVFTDQVLKFLSQDELVYTFGETVALGASGIVIWGTLSIMRSMKSCLLLDNYMETILNPYIINVTLAAKMCSQVLCQEQGVCIRKNWNSSDYLHLNPDNFAIQLEKGGKFTVRGKPTLEDLEQFSEKFYCSCYSTLSCKEKADVKDTDAVDVCIADGVCIDAFLKPPMETEEPQIFYNASPSTLSHHHHHH
modifications: His6 tag; PH20sHis
B2: the “Activity pH 5.5” value in data set [5] (pH 5.5) is given as “YES”. Also, in data set [5] (pH 7.4), the “Activity pH 7.4” value was “YES”. In addition, the “PH20 Activity (1:27)” value is on record as 0.54 U/mL in data set [6] (expressed in Lec1 cells), 0.675 U/mL in data set [6] (expressed in Lec2 cells), 0.2565 U/mL in data set [6] (expressed in Lec8 cells) and 0.297 U/mL in data set [6] (expressed in Pro-5 cells). Further, the “PH20 Activity (1:81)” value in data set [6] (expressed in Lec1 cells) came out at 0.7695 U/mL; in data set [6] (expressed in Lec2 cells), 1.053 U/mL; in data set [6] (expressed in Lec8 cells), 0.567 U/mL; in data set [6] (expressed in Pro-5 cells) it was 0.6075 U/mL.

B3: HZ24-mut(B/S): plasmid encoding PH20 truncated at amino acid 482, SEQ ID NO:122 (protein, listed as Homo sapiens)
chain: LNFRAPPVIPNVPFLWAWNAPSEFCLGKFDEPLDMSLFSFIGSPRINATGQGVTIFYVDRLGYYPYIDSITGVTVNGGIPQKISLQDHLDKAKKDITFYMPVDNLGMAVIDWEEWRPTWARNWKPKDVYKNRSIELVQQQNVQLSLTEATEKAKQEFEKAGKDFLVETIKLGKLLRPNHLWGYYLFPDCYNHHYKKPGYNGSCFNVEIKRNDDLSWLWNESTALYPSIYLNTQQSPVAATLYVRNRVREAIRVSKIPDAKSPLPVFAYTRIVFTDQVLKFLSQDELVYTFGETVALGASGIVIWGTLSIMRSMKSCLLLDNYMETILNPYIINVTLAAKMCSQVLCQEQGVCIRKNWNSSDYLHLNPDNFAIQLEKGGKFTVRGKPTLEDLEQFSEKFYCSCYSTLSCKEKADVKDTDAVDVCIADGVCIDAFLKPPMETEEPQIFY
modifications: soluble rHuPH20 36-482
Take B3: in data set [6] (expressed in Pro-5 cells), the “PH20 Activity (1:27)” value amounted to 0.6615 U/mL and the “PH20 Activity (1:81)” value is recorded as 1.1745 U/mL.

B4: SPAM1-STLS: C-terminally truncated human PH20, precursor 490 aa (SEQ ID NO:13), mature 455 aa (SEQ ID NO:65) (protein, listed as Homo sapiens)
chain 1: MGVLKFKHIFFRSFVKSSGVSQIVFTFLLIPCCLTLNFRAPPVIPNVPFLWAWNAPSEFCLGKFDEPLDMSLFSFIGSPRINATGQGVTIFYVDRLGYYPYIDSITGVTVNGGIPQKISLQDHLDKAKKDITFYMPVDNLGMAVIDWEEWRPTWARNWKPKDVYKNRSIELVQQQNVQLSLTEATEKAKQEFEKAGKDFLVETIKLGKLLRPNHLWGYYLFPDCYNHHYKKPGYNGSCFNVEIKRNDDLSWLWNESTALYPSIYLNTQQSPVAATLYVRNRVREAIRVSKIPDAKSPLPVFAYTRIVFTDQVLKFLSQDELVYTFGETVALGASGIVIWGTLSIMRSMKSCLLLDNYMETILNPYIINVTLAAKMCSQVLCQEQGVCIRKNWNSSDYLHLNPDNFAIQLEKGGKFTVRGKPTLEDLEQFSEKFYCSCYSTLSCKEKADVKDTDAVDVCIADGVCIDAFLKPPMETEEPQIFYNASPSTLS
chain 2: LNFRAPPVIPNVPFLWAWNAPSEFCLGKFDEPLDMSLFSFIGSPRINATGQGVTIFYVDRLGYYPYIDSITGVTVNGGIPQKISLQDHLDKAKKDITFYMPVDNLGMAVIDWEEWRPTWARNWKPKDVYKNRSIELVQQQNVQLSLTEATEKAKQEFEKAGKDFLVETIKLGKLLRPNHLWGYYLFPDCYNHHYKKPGYNGSCFNVEIKRNDDLSWLWNESTALYPSIYLNTQQSPVAATLYVRNRVREAIRVSKIPDAKSPLPVFAYTRIVFTDQVLKFLSQDELVYTFGETVALGASGIVIWGTLSIMRSMKSCLLLDNYMETILNPYIINVTLAAKMCSQVLCQEQGVCIRKNWNSSDYLHLNPDNFAIQLEKGGKFTVRGKPTLEDLEQFSEKFYCSCYSTLSCKEKADVKDTDAVDVCIADGVCIDAFLKPPMETEEPQIFYNASPSTLS
modifications: HuPH20 precursor 1-490; mature HuPH20 36-490
For the molecule B4, the “Expressed in Media” value in the data set on CHO-S cells [1] is given as “YES”. Moreover, the “Expressed in Media Following Addition of PI-PLC” value with CHO-S cells [2] is “Initially in media”. Moreover, in data set [3] (Table 6), the “pH 5.5 Activity” value was 1.2375 Units/ml and the “pH 7.4 Activity” value is 0.819 Units/ml. Also, the Soluble entry in data set [4] is recorded as “YES”.

These data come from patent US9284543B2, “Neutral active soluble truncated PH20 polypeptides and uses thereof” (Halozyme, Inc., priority 2008, dated 2016).
